Experimental findings from article PMC5651819, “AtSPX1 affects the AtPHR1–DNA-binding equilibrium by binding monomeric AtPHR1 in solution” are described below.

The target of data set [1] is MBP-AtdPHR1 (Arabidopsis thaliana, UniProt Q94CL7 208-362). Kind of data set: SPR; 1:1 fit at 2.5 nM protein, n = 3; ka 3.5e4 M-1 s-1, kd 0.00049 s-1; SPR (Biacore 3000, SA chip, ~500 RU DNA): 10 mM HEPES pH 7.5, 200 mM NaCl, 0.01% Surfactant P-20, 25 C, 40 ul/min, with or without Pi/InsP6. The following applies: protein: recombinant; tags: N-terminal MBP (pMAL-c2x); chain copies: 2; label: 5'-biotin on strand 1; blunt.
MBP-AtdPHR1, sequence (Q94CL7 208-362): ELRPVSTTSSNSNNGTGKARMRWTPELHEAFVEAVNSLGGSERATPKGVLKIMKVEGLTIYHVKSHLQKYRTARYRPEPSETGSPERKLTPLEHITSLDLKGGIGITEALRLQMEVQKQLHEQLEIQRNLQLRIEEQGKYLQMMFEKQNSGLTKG

For data set [2], the target named is T1, GST-AtSPX1 (Arabidopsis thaliana, UniProt Q8LBH4 1-256).
T1 sequence: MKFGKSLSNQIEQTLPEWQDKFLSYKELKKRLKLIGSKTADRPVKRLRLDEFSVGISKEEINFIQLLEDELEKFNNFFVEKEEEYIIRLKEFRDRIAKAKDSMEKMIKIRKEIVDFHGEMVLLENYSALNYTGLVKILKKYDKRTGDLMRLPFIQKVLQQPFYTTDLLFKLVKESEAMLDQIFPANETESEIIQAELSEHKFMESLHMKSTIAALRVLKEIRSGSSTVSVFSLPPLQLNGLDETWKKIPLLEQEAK
Kind of data set: SPR; ~1000 nM GST-AtSPX1 after buffer, with or without 5 mM Pi; low near-baseline signal taken as non-specific; SPR (Biacore 3000, SA chip, ~500 RU DNA): 10 mM HEPES pH 7.5, 200 mM NaCl, 0.01% Surfactant P-20, 25 C, 40 ul/min, with or without Pi/InsP6. To be noted: protein: recombinant; tags: N-terminal GST (pGEX-2T); label: 5'-biotin on strand 1; blunt.

B1: 2x P1BS probe (dsDNA)
DNA 1: CAGAGAAAAAAGGATATTCTAATTAGAAACCTTAAGAATATTCTTTTTAATCCC
DNA 2: GGGATTAAAAAGAATATTCTTAAGGTTTCTAATTAGAATATCCTTTTTTCTCTG
As for B1, the Kd in data set [1] stood at 14 ± 2.4 nM. Moreover, in data set [2], the binding result is “no binding”.
